Reference: article PMC3988174

B1: Chloroplast chaperonin 10 (natural protein)
chain: MASTFVCSLPNPFFAFPVKATTPSTANHTLLGSRRGCLRIKAISTKWEPTKVVPQADRVLVRLEDLPIKSSGGVLLPKAAVKFERYLTGEIISVGSEVGQQVGPGKRVLFSDVSAYEVDLGTDARHCFCKESDLLALVE
B2: Glutathione S-transferase PHI 2 (natural protein)
chain: MAGIKVFGHPASIATRRVLIALHEKNLDFELVHVELKDGEHKKEPFLSRNPFGQVPAFEDGDLKLFESRAITQYIAHRYENQGTNLLQTDSKNISQYAIMAIGMQVEDHQFDPVASKLAFEQIFKSIYGLTTDEAVVAEEEAKLAKVLDVYEARLKEFKYLAGETFTLTDLHHIPAIQYLLGTPTKKLFTERPRVNEWVAEITKRPASEKVQ
B3: Translationally controlled tumor protein (natural protein)
chain: MLVYQDLLTGDELLSDSFPYKEIENGILWEVEGKWVTVGAVDVNIGANPSAEEGGEDEGVDDSTQKVVDIVDTFRLQEQPTYDKKGFIAYIKKYIKLLTPKLSEEDQAVFKKGIEGATKFLLPRLSDFQFFVGEGMHDDSTLVFAYYKEGSTNPTFLYFAHGLKEVKC
B4: Fe superoxide dismutase 1 (natural protein)
chain: MAASSAVTANYVLKPPPFALDALEPHMSKQTLEFHWGKHHRAYVDNLKKQVLGTELEGKPLEHIIHSTYNNGDLLPAFNNAAQAWNHEFFWESMKPGGGGKPSGELLALLERDFTSYEKFYEEFNAAAATQFGAGWAWLAYSNEKLKVVKTPNAVNPLVLGSFPLLTIDVWEHAYYLDFQNRRPDYIKTFMTNLVSWEAVSARLEAAKAASA
B5: Small GTP-binding protein (natural protein)
chain: MAMASAMDLSSPPTFFLSGTSTSSPSLRRLSSISVSGFRRHSNRKLQILCQATAGTEPQSGLSVSGSKLAARSGQDRLLKVPISNIRNFSIIAHIDHGKSTLADKLLQVTGTVQNRDMKEQFLDNMDLERERGITIKLQAARMRYVYEDTPFCLNLIDTPGHVDFSYEVSRSLAACEGALLVVDASQGVEAQTLANVYLALENNLEIIPVLNKIDLPGAEPEKVLREIEEVIGLDCSKAIFCSAKEGIGITEILDAIVQRIPAPLDTAGKPLRALIFDSYYDPYRGVIVYFRVIDGKVKKGDRIFFMASGKDYFADEVGVLSPNQIQVDELYAGEVGYIAASVRSVADARVGDTITHYSRKAESSLPGYEEATPMVFCGLFPVDADQFPDLRDALEKLQLNDAALKFEPETSSAMGFGFRCGFLGLLHMEIVQERLEREYNLNLITTAPSVVYRVNSVNGDTTLCSNPSRLPDPGQRKSVEEPYVKIELLTPKDYIGALMELAQERRGEFKEMKYIAENRASILYELPLAEMVGDFFDQLKSRTKGYASMEYSVIGYRESDLIKLDILINAEMVEPLSTIVHRDKAYSVGRALTQKLKELIPRQMFKVPIQACIGSKVIASEALSAIRKDVLAKCYGGDISRKKKLLKKQAAGKKRMKAIGRVDVPQEAFMAVLKLEREVL
B6: Lactoylglutathionelyase (natural protein)
chain: MASEARESPANNPGLSTNRDEATKGYIMQQTMFRIKDPKASLDFYSRVLGMSLLKRLDFSEMKFSLYFLGYEDTTTAPTDPTERTVWTFGQPATIELTHNWGTESDPEFKGYHNGNSEPRGFGHIGVTVDDVHKACERFEELGVEFAKKPNDGKMKNIAFIKDPDGYWIEIFDLKTIGTTTVNAA
B7: Geranylgeranyl reductase (natural protein)
chain: MLFSGSAIPLSSFCSLPEKPHTLPMKLSPAAIRSSSSSAPGSLNFDLRTYWTTLITEINQKLDEAIPVKHPAGIYEAMRYSVLAQGAKRAPPVMCVAACELFGGDRLAAFPTACALEMVHAASLIHDDLPCMDDDPVRRGKPSNHTVYGSGMAILAGDALFPLAFQHIVSHTPPDLVPRATILRLITEIARTVGSTGMAAGQYVDLEGGPFPLSFVQEKKFGAMGECSAVCGGLLGGATEDELQSLRRYGRAVGMLYQVVDDITEDKKKSYDGGAEKGMMEMAEELKEKAKKELQVFDNKYGGGDTLVPLYTFVDYAAHRHFLLPL
B8: Sugar transporter EDR6-like 7 (natural protein)
chain: MSKASDAVREPLVDKNMAGSKPDQPWMVYLSTFVAVCGSFAFGSCAGYSSPAQAAIRNDLSLTIAEFSLFGSLLTFGAMIGAITSGPIADLVGRKGAMRVSSAFCVVGWLAIIFAKGVVALDLGRLATGYGMGAFSYVVPIFIAEIAPKTFRGALTTLNQILICTGVSVSFIIGTLVTWRVLALIGIIPCAASFLGLFFIPESPRWLAKVGRDTEFEAALRKLRGKKADISEEAAEIQDYIETLERLPKAKMLDLFQRRYIRSVLIAFGLMVFQQFGGINGICFYTSSIFEQAGFPTRLGMIIYAVLQVVITALNAPIVDRAGRKPLLLVSATGLVIGCLIAAVSFYLKVHDMAHEAVPVLAVVGIMVYIGSFSAGMGAMPWVVMSEIFPINIKGVAGGMATLVNWFGAWAVSYTFNFLMSWSSYGTFLIYAAINALAIVFVIAIVPETKGKTLEQIQAIVNP
B9: Tryptophan synthase, beta subunit 1 (natural protein)
chain: MAASGTSATFRASVSSAPSSSSQLTHLKSPFKAVKYTPLPSSRSKSSSFSVSCTIAKDPPVLMAAGSDPALWQRPDSFGRFGKFGGKYVPETLMHALSELESAFYALATDDDFQRELAGILKDYVGRESPLYFAERLTEHYRRENGEGPLIYLKREDLNHTGAHKINNAVAQALLAKRLGKKRIIAETGAGQHGVATATVCARFGLECIIYMGAQDMERQALNVFRMRLLGAEVRGVHSGTATLKDATSEAIRDWVTNVETTHYILGSVAGPHPYPMMVRDFHAVIGKETRKQALEKWGGKPDVLVACVGGGSNAMGLFHEFVNDTEVRMIGVEAAGFGLDSGKHAATLTKGDVGVLHGAMSYLLQDDDGQIIEPHSISAGLDYPGVGPEHSFFKDMGRAEYYSITDEEALEAFKRVSRLEGIIPALETSHALAYLEKLCPTLSDGTRVVLNFSGRGDKDVQTVAKYLDV
B10: Protein LURP-one-related 15 Protein (natural protein)
chain: MEQPYVYAYPQGSGPSGAPTPQAGGVVVDPKYCAPYPIDMAIVRKMMSLTDGNFVITDVNGNLLFKVKEPVFGLHDKRVLLDGSGTPVVTLREKMVSMHDRWQVFRGGSTDQRDLLYTVKRSSMLQLKTKLDVFLGHNKDEKRCDFRVKGSWLERSCVVYAGESDAIVAQMHRKHTVQSVFLGKDNFSVTVYPNVDYAFIASLVVILDDVNREDRAA
B11: MPBQ/MSBQ methyl transferase (natural protein)
chain: MASLMLNGAITFPKGLGSPGSNLHARSIPRPTLLSVTRTSTPRLSVATRCSSSSVSSSRPSAQPRFIQHKKEAYWFYRFLSIVYDHVINPGHWTEDMRDDALEPADLSHPDMRVVDVGGGTGFTTLGIVKTVKAKNVTILDQSPHQLAKAKQKEPLKECKIVEGDAEDLPFPTDYADRYVSAGSIEYWPDPQRGIREAYRVLKIGGKACLIGPVYPTFWLSRFFSDVWMLFPKEEEYIEWFKNAGFKDVQLKRIGPKWYRGVRRHGLIMGCSVTGVKPASGDSPLQLGPKEEDVEKPVNNPFSFLGRFLLGTLAAAWFVLIPIYMWIKDQIVPKDQPI
B12: CCR-like protein (natural protein)
chain: MQGALFIKPTILLPLPSSVSSPKLTFLLPHATKASRLSSLRSNNSSSSSSLTSDPNTVDYNSSILSVFPAEACEVISGYACSADIYPEVKLDTKPVSRPVASEPVDREYEEYNSPKTVFREEACDDLGGEFCEPDFQKDAN
B13: 5′-Adenylylsulfate reductase 2 (natural protein)
chain: MALAVTSSSTAISGSSFSRSGASSESKALQICSIRLSDRTHLSQRRYSMKPLNAESHSRSESWVTRASTLIAPEVEEKGGEVEDFEQLAKKLEDASPLEIMDKALERFGDQIAIAFSGAEDVALIEYARLTGKPFRVFSLDTGRLNPETYRLFDAVEKQYGIRIEYMFPDAVEVQALVRNKGLFSFYEDGHQECCRVRKVRPLRRALKGLKAWITGQRKDQSPGTRSEIPIVQVDPVFEGLDGGVGSLVKWNPLANVEGADVWNFLRTMDVPVNALHAQGYVSIGCEPCTRPVLPGQHEREGRWWWEDAKAKECGLHKGNIKEEDGAADSKPAAVQEIFESNNVVALSKGGVENLLKLENRKEAWLVVLYAPWCPFCQAMEASYIELAEKLAGKGVKVAKFRADGEQKEFAKQELQLGSFPTILLFPKRAPRAIKYPSEHRDVDSLMSFVNLLR
B14: Putative 3-dehydroquinate synthase (natural protein)
chain: MAANTISLSNVAASKNLNSFQSRAFIAPPTIFFPVASAKSKPGELSLSSTTLSRSRVRAGASQLMNEPLNDQRSISSPTVVEVDLGDRSYPIYIGAGLLDHSELLQRHVHGKRVLVVTNDRVAPLYLDKTIDALTRGNPNVTVESVILPDGEKYKDMDTLMKVFDKAIESRLDRRCTFVALGGGVIGDMCGYAAASYLRGVNFIQIPTTVMAQVDSSVGGKTGINHRLGKNLIGAFYQPQCVLVDTDTLNTLPDREMASGLAEVIKYGLIRDAEFFEWQEKNIEALLARDPAALAFAIKRSCENKADVVSQDEKESGLRATLNLGHTFGHAIETGFGYGEWLHGEAVAAGTVMAVDMSYRLGWIDESIVKRVNKILVRAKLPTTPPESMTVSMFKSIMAVDKKVADGLLRLILLKGPLGNCVFTGDYDREALDATLRAFSKS
B15: GLNB1-like protein (natural protein)
chain: MAASMTKPISITSLGFYSDRKNIAFSDCISICSGFRHSRPSCLDLVTKSPSNNSRVLPVVSAQISSDYIPDSKFYKVEAIVRPWRIQQVSSALLKIGIRGVTVSDVRGFGAQGGSTERHGGSEFSEDKFVAKVKMEIVVKKDQVESVINTIIEGARTGEIGDGKIFVLPVSDVIRVRTGERGEKAEKMTGDMLSPS
B16: Oxygen-evolving enhancer protein 3-2 (natural protein)
chain: MAQAVTSMAGLRGASQAVLEGSLQINGSNRLNISRVSVGSQRTGLVIRAQQNVSVPESSRRSVIGLVAAGLAGGSFVKAVFAEAIPIKVGGPPLPSGGLPGTDNSDQARDFSLALKDRFYIQPLSPTEAAARAKDSAKEIINVKSFIDKKAWPYVQNDLRLRASYLRYDLNTVISAKPKEEKQSLKDLTAKLFQTIDNLDYAARSKSSPDAEKYYSETVSSLNNVLAKLG
B17: Photosystem II subunit T (natural protein)
chain: MASMTMTATFFPAVAKVPSATGGRRLSVVRASTSDNTPSLEVKEQSSTTMRRDLMFTAAAAAVCSLAKVAMAEEEEPKRGTEAAKKKYAQVCVTMPTAKICRY

What follows are binders tested against atToc132 G-domain bait (Arabidopsis thaliana) (UniProt Q9SLF3) (assay: two-hybrid; pairwise split-ubiquitin yeast two-hybrid of isolated NubG-preys with Toc159G, Toc132G or Toc132AG bait in NMY51; growth on SD-LWHA (3-AT) and quantitative β-Gal assay, activity relative to a reference bait set to 100%).
Chain of atToc132 G-domain bait (Arabidopsis thaliana) (Q9SLF3 456-794): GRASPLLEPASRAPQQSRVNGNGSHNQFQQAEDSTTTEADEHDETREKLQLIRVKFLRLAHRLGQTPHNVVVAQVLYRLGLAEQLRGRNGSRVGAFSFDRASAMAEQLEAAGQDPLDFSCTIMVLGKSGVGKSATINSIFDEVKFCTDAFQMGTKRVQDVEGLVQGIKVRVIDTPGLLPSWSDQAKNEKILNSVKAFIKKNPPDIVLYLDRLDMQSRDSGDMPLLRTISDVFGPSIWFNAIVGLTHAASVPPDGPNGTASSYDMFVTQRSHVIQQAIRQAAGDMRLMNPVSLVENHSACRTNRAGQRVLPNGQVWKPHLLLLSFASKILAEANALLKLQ

| Binder | % increase in strength of interaction (β-Gal) with 132G against 159G [%] |
| --- | --- |
| B1 | 42.1 |
| B2 | 52 |
| B3 | 41 |
| B4 | 99.5 |
| B5 | 41.1 |
| B6 | 91.5 |
| B7 | 88 |
| B8 | 49.3 |
| B9 | 19.6 |
| B10 | 29.9 |
| B11 | 30.7 |
| B12 | 74.4 |
| B13 | 44.7 |
| B14 | 27.8 |
| B15 | 39.8 |
| B16 | 20 |
| B17 | 28.9 |
